Tests used:
[1] = biological target: YipR (His6-MBP fusion) (Xanthomonas campestris pv. campestris …, UniProt A0A0H2XAU1 1-344); assay: EMSA; EMSA buffer not given in the material; Bind-n-seq: 20 mM Tris-HCl pH 8, 1 mM TCEP, 2% glycerol, 1 mM EDTA (binding buffer A) plus MgCl2, BSA and 0-500 mM KCl, room temperature 2 h; settings: protein: recombinant; tags: His6-MBP; label: DIG; blunt
[2] = biological target: His6-MBP tag alone (UniProt P0AEX9 27-392); assay: EMSA; tag-only control; EMSA buffer not given in the material; Bind-n-seq: 20 mM Tris-HCl pH 8, 1 mM TCEP, 2% glycerol, 1 mM EDTA (binding buffer A) plus MgCl2, BSA and 0-500 mM KCl, room temperature 2 h; settings: protein: recombinant; tags: His6-MBP; label: DIG; blunt

Sequence of YipR (His6-MBP fusion) (A0A0H2XAU1 whole entry, the tested form may be a part): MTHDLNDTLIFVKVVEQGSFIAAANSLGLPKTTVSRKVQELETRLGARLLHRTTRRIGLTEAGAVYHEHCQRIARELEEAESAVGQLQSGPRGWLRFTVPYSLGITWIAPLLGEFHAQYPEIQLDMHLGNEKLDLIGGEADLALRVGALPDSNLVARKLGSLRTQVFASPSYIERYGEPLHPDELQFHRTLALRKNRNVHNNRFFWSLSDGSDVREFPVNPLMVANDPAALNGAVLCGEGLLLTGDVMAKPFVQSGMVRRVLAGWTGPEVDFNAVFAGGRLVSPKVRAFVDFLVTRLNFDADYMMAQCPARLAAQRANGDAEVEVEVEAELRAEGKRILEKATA

B1: XC_2633P (dsDNA)
DNA 1: CCGGCTTTATCCAGATCGCCGACCTGCACCCAGGACCCAGCGGCTTGCTGACGCCCTTCAAGGACACACGGATGTGGATAGCGGGGTTCAAGCCCGACGGGAACCGCGACAAGTAACCCGGCCTCCTACTTCCCAATCCCTCTC
DNA 2: GAGAGGGATTGGGAAGTAGGAGGCCGGGTTACTTGTCGCGGTTCCCGTCGGGCTTGAACCCCGCTATCCACATCCGTGTGTCCTTGAAGGGCGTCAGCAAGCCGCTGGGTCCTGGGTGCAGGTCGGCGATCTGGATAAAGCCGG
- binding result [1]: binds
- binding result [2]: no binding
